Assay [1] has as its target T1, MBP-RAMP1 ECD-(GS)5-CLR ECD-H6 fusion protein (human, UniProt O60894 24-111; Q16602 29-144).
T1 construct: range 24-111;range 29-144; Tethered ECD fusion made in E. coli; used in the FP assay at 15 nM; also called MBP-hRAMP1.24-111-(Gly-Ser)5-hCLR.29-144-H6
The assay is described as follows: FP (anisotropy) competition: displaces FITC-Ahx-AM(37-52)NH2[S45W,Q50W] probe (7 nM) from MBP-RAMP1 ECD-(GS)5-CLR ECD-H6 (15 nM) [F-H) panel G]. The method, then:
(§1) Fluorescence polarization peptide binding assay. […] The reactions (50 μL) were incubated for 2 hours at room temperature to reach equilibrium, and the anisotropy was measured in black half-area 96-well plates using a BMG LABTECH's POLARstar® Omega plate reader (Ortenberg, Germany). The reaction buffer was 50 mM HEPES, pH 7.5, 150 mM NaCl, 0.5 mg/ml fatty acid-free BSA, 0.5 mM EDTA, 0.5 mM maltose. KI values were calculated using nonlinear regression fitting of the competition curves to the exact analytical equations of Roehrl et al. (Biochemistry (2004) 43:16056-66) using GraphPad Prism 5.0 (GraphPad Software, San Diego Calif.).

Assay [2] addresses T1, MBP-RAMP1 ECD-(GS)5-CLR ECD-H6 fusion …. The assay is described as follows: FP competition vs FITC-AM W/W probe, purified ECD fusion. How it is done:
as §1
(§2) The large size difference between the MBP-RAMP ECD-CLR ECD fusion proteins (˜65 kDa) and the probe (˜2.5 kDa) ensures a significant anisotropy difference between bound and free states of the probe. […] Kd values for the probe at each of the tethered ECD fusion proteins were determined in equilibrium saturation binding experiments (data not shown), and KI values were determined for unlabeled peptides in equilibrium competition experiments (Table 1; FIGS. 2-5). The data were analyzed according to exact analytical equations using non-linear regression curve fitting in GraphPad Prism 5.0 (GraphPad Software) via user-defined equations.

Assay [3] has the same target. As to the kind of experiment: FP (anisotropy) competition: displaces FITC-Ahx-AM(37-52)NH2[S45W,Q50W] probe (7 nM) from MBP-RAMP1 ECD-(GS)5-CLR ECD-H6 (15 nM) [D-E) panel D]. How it is done: as §1
as §1, with “Single representative experiments conducted with duplicate samples are shown.” for “Fluorescence polarization peptide binding assay.”, “reactions” for “reactions (50 μL)”

Assay [4] has the same target. As to the kind of experiment: FP (anisotropy) competition: displaces FITC-Ahx-AM(37-52)NH2[S45W,Q50W] probe (7 nM) from MBP-RAMP1 ECD-(GS)5-CLR ECD-H6 (15 nM) [D-E) panel E]. How it is done:
as §1
as §1, with “Single representative experiments conducted with duplicate samples are shown.” for “Fluorescence polarization peptide binding assay.”, “reactions” for “reactions (50 μL)”

The target of assay [5] is MBP-RAMP2 ECD [L106R]-(GS)5-CLR ECD-H6 fusion protein (human) (UniProt O60895). The assay is described as follows: FP competition vs FITC-AM W/W probe, purified ECD fusion.
Sequence of MBP-RAMP2 ECD [L106R]-(GS)5-CLR ECD-H6 fusion protein (human) (O60895 other isoform, or with tags, fused parts or gaps L106R L106R): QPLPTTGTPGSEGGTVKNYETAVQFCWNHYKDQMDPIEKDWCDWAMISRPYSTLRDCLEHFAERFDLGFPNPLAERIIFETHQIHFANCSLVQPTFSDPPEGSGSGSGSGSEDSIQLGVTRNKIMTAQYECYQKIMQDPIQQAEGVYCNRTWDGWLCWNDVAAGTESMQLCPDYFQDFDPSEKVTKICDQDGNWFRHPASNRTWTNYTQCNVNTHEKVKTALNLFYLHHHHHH
In assay [6] the target is T1, MBP-RAMP1 ECD-(GS)5-CLR ECD-H6 fusion …. As to the kind of experiment: ratio of FP KI values at the two ECD complexes. How it is done:
as §1, §2

Where no end group is shown, it is not given here.

T1 sequence (O60894 other isoform, or with tags, fused parts or gaps limits assumed, form in doubt): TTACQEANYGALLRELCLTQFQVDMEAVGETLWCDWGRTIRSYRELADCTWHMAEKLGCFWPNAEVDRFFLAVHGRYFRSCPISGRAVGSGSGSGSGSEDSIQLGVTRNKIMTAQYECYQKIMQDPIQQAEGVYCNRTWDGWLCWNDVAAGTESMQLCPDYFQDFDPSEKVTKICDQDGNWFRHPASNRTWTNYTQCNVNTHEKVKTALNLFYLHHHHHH

As usually defined, the Ki is a measure of affinity in units of concentration, obtained from inhibition or displacement. Low readings indicate a stronger hold on the target, high ones a looser hold on the target. On to DKDNVAPRWLMSPWGF-NH2 [AM(37-52)NH2 [S45W, K46L, I47M, Q50W, Y52F]], for which the “IC50 (read off the curve)” value in assay [1] was around 10 nM. In assay [2], this molecule had a Ki of 0.78 nM and a pKI of 9.11.

On to FVPTDTGPWGF-NH2 [CGRP(27-37)NH2 [N31D, V32T, S34P, K35W, A36G]], for which the “IC50 (read off the curve)” value in assay [3] was around 30 nM. In assay [2], this molecule yielded a Ki of 6.85 nM and a pKI of 8.16.

On to FVPTDTGPWSF-NH2 [CGRP(27-37)NH2 [N31D, V32T, S34P, K35W, A36S]], for which, in assay [2], the Ki is below 1 nM and the pKI is above 9. The “IC50 (read off the curve)” value in assay [4] was around 10 nM. For the same molecule, in assay [5], the Ki was 2750 nM and the pKI is 5.56. For the same molecule, the “Receptor Selectivity (fold, over RAMP2-CLR ECD)” value in assay [6] is at least 2750 fold.

These data come from patent US20180141989A1 (BOARD OF REGENTS OF THE UNIVERSITY OF OKLAHOMA, published 2018).
